Measurements as given in PMC8754649, “Structural basis of dimerization and nucleic acid binding of human DBHS proteins NONO and PSPC1” (Nucleic Acids Research, 2021).

Key:
[1] = biological target: the molecule itself; assay: crystal structure; NONO aa53–312 homodimer; six dimers (12 monomers) in the asymmetric unit; 2.60 Å; crystallization and phasing described in ref. 38
[2] = biological target: the molecule itself; assay: crystal structure; PSPC1 aa61–320 homodimer; one dimer in the asymmetric unit; 3.17 Å; hanging drop, 100 mM malic acid pH 7.0, 28% PEG 3350, 100 mM Tris pH 7.0

| Protein | binding result [1] | binding result [2] |
| --- | --- | --- |
| NONO-DBHS (non-POU domain-containing octamer-binding protein, aa53–312) (domain or fragment, human, UniProt Q15233 53-312, looked up, Cloned into the first expression cassette of pET-Duet1; also called NONO homodimer; P54nrb; not shown: His6, N-terminal, cleaved) EGLTIDLKNFRKPGEKTFTQRSRLFVGNLPPDITEEEMRKLFEKYGKAGEVFIHKDKGFGFIRLETRTLAEIAKVELDNMPLRGKQLRVRFACHSASLTVRNLPQYVSNELLEEAFSVFGQVERAVVIVDDRGRPSGKGIVEFSGKPAARKALDRCSEGSFLLTTFPRPVTVEPMDQLDDEEGLPEKLVIKNQQFHKEREQPPRFAQPGSFEYEYAMRWKALIEMEKQQQDQVDRNIKEAREKLEMEMEAARHEHQVMLM | binds | – |
| PSPC1-DBHS (paraspeckle protein component 1, aa61–320) (domain or fragment, human, UniProt Q8WXF1 61-320, looked up, human PSPC1, conserved DBHS region, aa61–320 relative to UniProt entry PSPC1_HUMAN; also called PSPC1 homodimer; PSPC1 (aa61–320); source: E. coli Rosetta2 (DE3), purified (Ni Hi-Trap, TEV digestion, reverse Hi-Trap, Superdex 200)) MGFTIDIKSFLKPGEKTYTQRCRLFVGNLPTDITEEDFKRLFERYGEPSEVFINRDRGFGFIRLESRTLAEIAKAELDGTILKSRPLRIRFATHGAALTVKNLSPVVSNELLEQAFSQFGPVEKAVVVVDDRGRATGKGFVEFAAKPPARKALERCGDGAFLLTTTPRPVIVEPMEQFDDEDGLPEKLMQKTQQYHKEREQPPRFAQPGTFEFEYASRWKALDEMEKQQREQVDRNIREAKEKLEAEMEAARHEHQLMLM | – | binds |
